System: M. catarrhalis ATCC 49143
Test: Proteolytic digestion of intact cells followed by hemagglutination test
Assay type: cell-based, Moraxella catarrhalis
Details: intact cells digested 1 hour at room temperature
Method: All proteases were obtained from Sigma Chemicals (St. Louis, Mo.). Immediately following the protease treatment, cells were washed once in PBS and resuspended in 1 ml of PBS and the hemagglutinating activity was tested. Additionally, protease-treated bacterial cells were extracted with octyl glucoside so the outer membrane proteins could be resolved to identify specific proteins that may have been digested by the proteases.

B1: proteinase K: Protease from Sigma Chemicals (protein, UniProt P06873 106-384, looked up)
Proteinase K: AAQTNAPWGLARISSTSPGTSTYYYDESAGQGSCVYVIDTGIEASHPEFEGRAQMVKTYYYSSRDGNGHGTHCAGTVGSRTYGVAKKTQLFGVKVLDDNGSGQYSTIIAGMDFVASDKNNRNCPKGVVASLSLGGGYSSSVNSAAARLQSSGVMVAVAAGNNNADARNYSPASEPSVCTVGASDRYDRRSSFSNYGSVLDIFGPGTSILSTWIGGSTRSISGTSMATPHVAGLAAYLMTLGKTTAASACRYIADTANKGDLSNIPFGTVNLLAYNNYQA
- Effect of protease treatment on hemagglutination activity: destroyed the hemagglutination activity

Reference: patent US7128910B2, “Moraxella catarrahalis outer membrane protein-106 polypeptide, gene sequences and uses thereof” (priority 1996, dated 2006)
